Patent US20230270832A1 (TSCAN THERAPEUTICS, published 2023)

B1: MAGEA1 TCR 32-41 (TCR, V domains shown)
V domain 1: QLLEQSPQFLSIQEGENLTVYCNSSSVFSSLQWYRQEPGEGPVLLVTVVTGGEVKKLKRLTFQFGDARKDSSLHITAAQPGDTGLYLCAGDESISYGKLTFGQGTILTVHP
V domain 2: DAGVIQSPRHEVTEMGQEVTLRCKPISGHDYLFWYRQTMMRGLELLIYFNNNVPIDDSGMPEDRFSAKMPNASFSTLKIQPSEPRDSAVYFCASSFLGWNEKLFFGSGTQLSVLE
B2: MAGEA1 TCR 32-39 (TCR, V domains shown)
V domain 1: DQQVKQNSPSLSVQEGRISILNCDYTNSMFDYFLWYKKYPAEGPTFLISISSIKDKNEDGRFTVFLNKSAKHLSLHIVPSQPGDSAVYFCAASAQNNDMRFGAGTRLTVKP
V domain 2: NAGVMQNPRHLVRRRGQEARLRCSPMKGHSHVYWYRQLPEEGLKFMVYLQKENIIDESGMPKERFSAEFPKEGPSILRIQQVVRGDSAAYFCASSPSYEQYFGPGTRLTVTE

Experiments:
[1] = target: MAGEA1 peptide VRFFFPSL (SEQ ID NO: 1) presented by HLA-C*07:02 (human); assay: cell-based or functional assay
[2] = target: … (10) (Homo sapiens, UniProt C*07:02); assay: cell-based or functional assay

Row | Binder | EC50 [table, row MAGEA1, column Peptide EC50] [1] | EC50 (read off the curve) [left panel '4hr Killing (IFP)'] [2]
1 | B1 | ~0.25 nM | –
2 | B2 | – | ~8 ng/mL
